{"source": "patent US9856460B2", "about": "“Nucleic acids encoding synthetic scaffolds and host cells genetically modified with the nucleic acids” (The Regents of the University of California, priority 2008, dated 2018)", "origin": "cited, not measured here", "target": "T1, WASP GBD (Rattus norvegicus, UniProt O08816)", "T1 construct": "196-274", "T1 sequence (O08816 196-274)": "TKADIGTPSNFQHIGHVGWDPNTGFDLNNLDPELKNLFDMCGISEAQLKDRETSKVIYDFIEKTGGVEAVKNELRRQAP", "conditions": "partner WASP GBD; measured in trans", "data": [{"substance": "GBD interaction ligand LVGALMHVMQKRSRAIHSSDEGEDQAGDEDED, SEQ ID NO: 30, partner WASP GBD [GBD lig.]", "values": [{"measurement": "Kd", "result": 1, "unit": "µM"}]}]}
